Data reported in paper PMC11096372.

Key:
[1] = biological target: Cas11b, small subunit of the Synechocystis sp. PCC 6714 type I-B Cascade (Synechocystis sp. PCC 6714); assay: cryo-EM structure; SEC-purified Cascade with crRNA and a 59-bp ATG-PAM dsDNA target; full R-loop (higher than 3.6 Å) and partial R-loop (3.8 Å) states
[2] = biological target: Cas7b, backbone subunit of the Synechocystis sp. PCC 6714 type I-B Cascade (Synechocystis sp. PCC 6714); assay: as above

| stoichiometry N [1] | stoichiometry N [2] | Substance |
| --- | --- | --- |
| 3 | – | Cas11b, small subunit of the Synechocystis sp. PCC 6714 type I-B Cascade (natural protein) |
| – | 7 | Cas7b, backbone subunit of the Synechocystis sp. PCC 6714 type I-B Cascade (natural protein) |
